# Measurements: article PMC4385751
# What was measured:
# [1] = biological target: Commercial CD62L from R&D systems, Inc. (human) (UniProt P14151); test: SPR
# [2] = biological target: Recombinant soluble human CD62L N104E mutant (residues 1-194, C-terminal six-histidine tag) (human) (UniProt P14151); test: SPR
substance,measurement,setting,value
type III porcine submaxillary mucin (PSM-III) (natural protein),Kd,[1],27 µM
same,Kd,[2],44 µM
